Assay results: the supplement of paper PMC11196671

Key:
[1] = BHET released, HPLC; higher = more BHET released; extreme values may be limits of the assay; details: 24 h
Procedure: (§1)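 Purified PET hydrolases, 2.5 ug enzyme on 3.5 mg amorphous PET film (aFilm) or crystalline PET powder (cryPow) in 0.5 mL of 50 mM buffer (NaCitrate pH 4.5/5.5, NaPhosphate 6.5/7.5, glycine 8.5/9.5) at 60 or 70 C with shaking for 24 h. Total aromatic product by UV-Vis (260/280 nm, blank-subtracted, normalised per mg enzyme) and individual TPA, MHET, BHET concentrations by UHPLC-DAD at 240 nm; duplicate reactions.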

[2] = terephthalic acid (TPA) released, HPLC; higher = more TPA released; extreme values may be limits of the assay; details: 24 h
Procedure: as §1

[3] = MHET released, HPLC; higher = more MHET released; extreme values may be limits of the assay; details: 24 h
Procedure: as §1

[4] = PET hydrolysis product formed (TPA+MHET+BHET, UV-Vis) per mg enzyme (mmol/mg enzyme); higher = more PET depolymerisation activity; extreme values may be limits of the assay; details: 2 h
Procedure: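 Purified PET hydrolases (His-SUMO cleaved, E. coli C41(DE3) small-scale expression), 2.5 ug enzyme on 3.5 mg amorphous PET film (aFilm) or crystalline PET powder (cryPow) in 0.5 mL of 50 mM buffer (NaCitrate pH 4.5/5.5, NaPhosphate 6.5/7.5, glycine 8.5/9.5) at 60 or 70 C with shaking for 2 h. Soluble aromatic products (TPA+MHET+BHET) were quantified by UV-Vis at 260/280 nm, blank-subtracted against the no-enzyme control, and normalised per mg enzyme; duplicate reactions.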

QDNPYERGPDPTEDSIEAIRGPFSVATERVSSFASGFGGGTIYYPRETDEGTFGAVAVAPGFTASQGSMSWYGERVASHGFIVFTIDTNTRLDAPGQRGRQLLAALDYLVERSDRKVRERLDPNRLAVMGHSMGGGGSLEATVMRPSLKASIPLTPWHLDKTWGQVQVPTFIIGAELDTIAPVSTHAKPFYESLPSSLPKAYMELCGATHFAPNIPNTTIAKYVISWLKRFVDEDTRYSQFLCPNPTDRAICEYRSTCPY [Cut190*SS]
Details	BHET released, [1] [mM]	MHET released, [3] [mM]	PET hydrolysis product formed, [4]	terephthalic acid, [2] [mM]
PET substrate: aFilm, 60 °C, pH 4.5	0	0	0	0
PET substrate: aFilm, 60 °C, pH 5.5	0	0.00789	0	0
PET substrate: aFilm, 60 °C, pH 6.5	0.00205	0.04	0	0.00808
PET substrate: aFilm, 60 °C, pH 7.5	0.0117	0.208	0.00672	0.0544
PET substrate: aFilm, 60 °C, pH 8.5	0	0.0945	0	0.0241
PET substrate: aFilm, 60 °C, pH 9.5	0	0.155	0.0106	0.319
PET substrate: aFilm, 70 °C, pH 4.5	0	0	0	0
PET substrate: aFilm, 70 °C, pH 5.5	0	0	0	0
PET substrate: aFilm, 70 °C, pH 6.5	0	0	0	0
PET substrate: aFilm, 70 °C, pH 7.5	0.00861	0.234	0.00376	0.142
PET substrate: aFilm, 70 °C, pH 8.5	0	0.00747	0	0
PET substrate: aFilm, 70 °C, pH 9.5	0	0.0894	0.0215	0.477
PET substrate: cryPow, 60 °C, pH 4.5	0	0	0	0
PET substrate: cryPow, 60 °C, pH 5.5	0.00623	0.0526	0	0.0115
PET substrate: cryPow, 60 °C, pH 6.5	0.00767	0.1	0.0096	0.016
PET substrate: cryPow, 60 °C, pH 7.5	0.0058	0.202	0.0258	0.0676
PET substrate: cryPow, 60 °C, pH 8.5	0	0.171	0.0105	0.04
PET substrate: cryPow, 60 °C, pH 9.5	0	0.11	0.0109	0.302
PET substrate: cryPow, 70 °C, pH 4.5	0	0	0	0
PET substrate: cryPow, 70 °C, pH 5.5	0	0.00708	0	0
PET substrate: cryPow, 70 °C, pH 6.5	0	0.0193	0	0.00353
PET substrate: cryPow, 70 °C, pH 7.5	0	0.0639	0.00904	0.0546
PET substrate: cryPow, 70 °C, pH 8.5	0	0.02402	0	0.01301
PET substrate: cryPow, 70 °C, pH 9.5	0	0.00359	0.00521	0.0846

SNPYQRGPNPTRSALTADGPFSVATYTVSRLSVSGFGGGVIYYPTGTSLTFGGIAMSPGYTADASSLAWLGRRLASHGFVVLVINTNSRFDGPDSRASQLSAALNYLRTSSPSAVRARLDANRLAVAGHSMGGGGTLRIAEQNPSLKAAVPLTPWHTDKTFNTSVPVLIVGAEADTVAPVSQHAIPFYQNLPSTTPKVYVELCNASHIAPNSNNAAISVYTISWMKLWVDNDTRYRQFLCNVNDPALCDFRTNNRHCQ [LCC-ICCG]
Details	BHET released, [1] [mM]	MHET released, [3] [mM]	PET hydrolysis product formed, [4]	terephthalic acid, [2] [mM]
PET substrate: aFilm, 60 °C, pH 4.5	0	0.00708	0	0.0137
PET substrate: aFilm, 60 °C, pH 5.5	0.00902	0.284	0.0182	0.309
PET substrate: aFilm, 60 °C, pH 6.5	0.0136	0.773	0.0377	0.78
PET substrate: aFilm, 60 °C, pH 7.5	0.0155	3.92	0.0795	3.41
PET substrate: aFilm, 60 °C, pH 8.5	0	0.271	0.0461	0.472
PET substrate: aFilm, 60 °C, pH 9.5	0.039	2.19	0.0968	2.3
PET substrate: aFilm, 70 °C, pH 4.5	0	0	0	0
PET substrate: aFilm, 70 °C, pH 5.5	0.00749	0.246	0.0371	0.25
PET substrate: aFilm, 70 °C, pH 6.5	0	0.356	0.0873	0.362
PET substrate: aFilm, 70 °C, pH 7.5	0.0808	4.35	0.226	2.48
PET substrate: aFilm, 70 °C, pH 8.5	0	0.221	0.0682	0.287
PET substrate: aFilm, 70 °C, pH 9.5	0	1.87	0.252	1.72
PET substrate: cryPow, 60 °C, pH 4.5	0	0.0148	0	0.0129
PET substrate: cryPow, 60 °C, pH 5.5	0.00462	0.203	0.0406	0.0979
PET substrate: cryPow, 60 °C, pH 6.5	0	0.27	0.045	0.113
PET substrate: cryPow, 60 °C, pH 7.5	0	0.507	0.0768	0.308
PET substrate: cryPow, 60 °C, pH 8.5	0	0.198	0.0339	0.121
PET substrate: cryPow, 60 °C, pH 9.5	0	0.165	0.0379	0.516
PET substrate: cryPow, 70 °C, pH 4.5	0	0	0	0
PET substrate: cryPow, 70 °C, pH 5.5	0	0.1	0.0205	0.0559
PET substrate: cryPow, 70 °C, pH 6.5	0.0013	0.208	0.0349	0.0977
PET substrate: cryPow, 70 °C, pH 7.5	0	0.433	0.0598	0.409
PET substrate: cryPow, 70 °C, pH 8.5	0	0.173	0.0285	0.111
PET substrate: cryPow, 70 °C, pH 9.5	0	0.1	0.0357	0.682

ANPYERGPNPTDALLEARSGPFSVSEENVSRLSASGFGGGTIYYPRENNTYGAVAISPGYTGTEASIAWLGERIASHGFVVITIDTITTLDQPDSRAEQLNAALNHMINRASSTVRSRIDSSRLAVMGHSMGGGGSLRLASQRPDLKAAIPLTPWHLNKNWSSVTVPTLIIGADLDTIAPVATHAKPFYNSLPSSISKAYLELDGATHFAPNIPNKIIGKYSVAWLKRFVDNDTRYTQFLCPGPRDGLFGEVEEYRSTCPF [TfCut2]
Details	BHET released, [1] [mM]	MHET released, [3] [mM]	PET hydrolysis product formed, [4]	terephthalic acid, [2] [mM]
PET substrate: aFilm, 60 °C, pH 4.5	0	0	0	0
PET substrate: aFilm, 60 °C, pH 5.5	0.00214	0.0544	0	0.0433
PET substrate: aFilm, 60 °C, pH 6.5	0.00244	0.0658	0.00338	0.0508
PET substrate: aFilm, 60 °C, pH 7.5	0.00625	0.213	0.0101	0.186
PET substrate: aFilm, 60 °C, pH 8.5	0	0.105	0.00697	0.0862
PET substrate: aFilm, 60 °C, pH 9.5	0	0.143	0.0114	0.454
PET substrate: aFilm, 70 °C, pH 4.5	0	0	0	0
PET substrate: aFilm, 70 °C, pH 5.5	0	0.00251	0	0
PET substrate: aFilm, 70 °C, pH 6.5	0	0.00766	0	0
PET substrate: aFilm, 70 °C, pH 7.5	0	0	0.00351	0.00319
PET substrate: aFilm, 70 °C, pH 8.5	0	0.0146	0.00376	0.00941
PET substrate: aFilm, 70 °C, pH 9.5	0	0	0.00877	0.03467
PET substrate: cryPow, 60 °C, pH 4.5	0	0	0	0
PET substrate: cryPow, 60 °C, pH 5.5	0	0.0126	0	0.0031
PET substrate: cryPow, 60 °C, pH 6.5	0	0.0226	0	0.00386
PET substrate: cryPow, 60 °C, pH 7.5	0.0022	0.104	0	0.0408
PET substrate: cryPow, 60 °C, pH 8.5	0	0.0471	0	0.0159
PET substrate: cryPow, 60 °C, pH 9.5	0	0.0249	0.00389	0.0959
PET substrate: cryPow, 70 °C, pH 4.5	0	0	0	0
PET substrate: cryPow, 70 °C, pH 5.5	0	0	0	0
PET substrate: cryPow, 70 °C, pH 6.5	0	0	0	0
PET substrate: cryPow, 70 °C, pH 7.5	0	0	0	0
PET substrate: cryPow, 70 °C, pH 8.5	0	0.00527	0	0
PET substrate: cryPow, 70 °C, pH 9.5	0	0	0	0.0139

QTNPYARGPNPTAASLEASAGPFTVRSFTVSRPSGYGAGTVYYPTNAGGTVGAIAIVPGYTARQSSIKWWGPRLASHGFVVITIDTNSTFDYPSSRSSQQMAALRQVASLNGDSSSPIYGKVDTARMGVMGHSMGGGASLRSAANNPSLKAAIPQAPWDSQTNFSSVTVPTLIFACENDSIAPVNSHALPIYDSMSRNAKQFLEINGGSHSCANSGNSNQALIGKKGVAWMKRFMDNDTRYSTFACENPNSTAVSDFRTANCS [DuraPETase]
Details	BHET released, [1] [mM]	MHET released, [3] [mM]	PET hydrolysis product formed, [4]	terephthalic acid, [2] [mM]
PET substrate: aFilm, 60 °C, pH 4.5	0	0	0	0.00462
PET substrate: aFilm, 60 °C, pH 5.5	0	0	0	0
PET substrate: aFilm, 60 °C, pH 6.5	0	0	0	0
PET substrate: aFilm, 60 °C, pH 7.5	0.0050186	0.182	0	0.102
PET substrate: aFilm, 60 °C, pH 8.5	0	0.099	0	0.0886
PET substrate: aFilm, 60 °C, pH 9.5	0	0.152	0.0223	0.344
PET substrate: aFilm, 70 °C, pH 4.5	0	0	0	0
PET substrate: aFilm, 70 °C, pH 5.5	0	0	0	0
PET substrate: aFilm, 70 °C, pH 6.5	0	0	0	0
PET substrate: aFilm, 70 °C, pH 7.5	0	0.00907	0	0.0128
PET substrate: aFilm, 70 °C, pH 8.5	0	0.00981	0	0.0158
PET substrate: aFilm, 70 °C, pH 9.5	0	0	0.0191	0.0892
PET substrate: cryPow, 60 °C, pH 4.5	0	0	0	0
PET substrate: cryPow, 60 °C, pH 5.5	0	0	0	0
PET substrate: cryPow, 60 °C, pH 6.5	0	0.0436	0	0.00832
PET substrate: cryPow, 60 °C, pH 7.5	0.00475	0.21	0.0496	0.0835
PET substrate: cryPow, 60 °C, pH 8.5	0	0.169	0.032	0.0926
PET substrate: cryPow, 60 °C, pH 9.5	0	0.123	0.0701	0.384
PET substrate: cryPow, 70 °C, pH 4.5	0	0	0	0
PET substrate: cryPow, 70 °C, pH 5.5	0	0	0	0
PET substrate: cryPow, 70 °C, pH 6.5	0	0.0107	0	0
PET substrate: cryPow, 70 °C, pH 7.5	0	0.0884	0.0447	0.12
PET substrate: cryPow, 70 °C, pH 8.5	0	0.0546	0.0151	0.0557
PET substrate: cryPow, 70 °C, pH 9.5	0	0	0.0191	0.0155
